These results are taken from US20190276496A1 (FUNDACI N PARA LA INVESTIGACI N M DICA APLICADA, published 2019).

Where no end group is shown, it is not given here. [ ]: non-standard residue; d: D form.

Sequences and labels used below:
B1: peptide of SEQ ID NO: 14 (peptide)
peptide: Ac-GR[dA]FQSFRKMWPFFAM-NH2
SMILES: CSCC[C@H](NC(=O)[C@H](C)NC(=O)[C@H](Cc1ccccc1)NC(=O)[C@H](Cc1ccccc1)NC(=O)[C@@H]1CCCN1C(=O)[C@H](Cc1c[nH]c2ccccc12)NC(=O)[C@H](CCSC)NC(=O)[C@H](CCCCN)NC(=O)[C@H](CCCNC(=N)N)NC(=O)[C@H](Cc1ccccc1)NC(=O)[C@H](CO)NC(=O)[C@H](CCC(N)=O)NC(=O)[C@H](Cc1ccccc1)NC(=O)[C@@H](C)NC(=O)[C@H](CCCNC(=N)N)NC(=O)CNC(C)=O)C(N)=O
B2: peptide of SEQ ID NO: 46 (peptide)
peptide: H-[dR]AFQSFRKMWPFFAM-OH
SMILES: CSCC[C@H](NC(=O)[C@H](C)NC(=O)[C@H](Cc1ccccc1)NC(=O)[C@H](Cc1ccccc1)NC(=O)[C@@H]1CCCN1C(=O)[C@H](Cc1c[nH]c2ccccc12)NC(=O)[C@H](CCSC)NC(=O)[C@H](CCCCN)NC(=O)[C@H](CCCNC(=N)N)NC(=O)[C@H](Cc1ccccc1)NC(=O)[C@H](CO)NC(=O)[C@H](CCC(N)=O)NC(=O)[C@H](Cc1ccccc1)NC(=O)[C@H](C)NC(=O)[C@H](N)CCCNC(=N)N)C(=O)O
B3: cyclic peptide SEQ ID NO: 50 (peptide)
peptide: RAFQAFRKMWPFFAM
modifications: head-to-tail cyclic: linker L is C(=O) between the N-terminal amino group of residue 1 and the alpha carbon of residue 15
B4: peptide of SEQ ID NO: 4 (peptide)
peptide: Ac-GR[dD]FQSFRKMWPFFAM-NH2
SMILES: CSCC[C@H](NC(=O)[C@H](C)NC(=O)[C@H](Cc1ccccc1)NC(=O)[C@H](Cc1ccccc1)NC(=O)[C@@H]1CCCN1C(=O)[C@H](Cc1c[nH]c2ccccc12)NC(=O)[C@H](CCSC)NC(=O)[C@H](CCCCN)NC(=O)[C@H](CCCNC(=N)N)NC(=O)[C@H](Cc1ccccc1)NC(=O)[C@H](CO)NC(=O)[C@H](CCC(N)=O)NC(=O)[C@H](Cc1ccccc1)NC(=O)[C@@H](CC(=O)O)NC(=O)[C@H](CCCNC(=N)N)NC(=O)CNC(C)=O)C(N)=O

For the first assay, the target named is T1, Foxp3 in murine CD25+ Treg cells (mouse, UniProt Q99JB6 1-417).
T1 sequence (looked up): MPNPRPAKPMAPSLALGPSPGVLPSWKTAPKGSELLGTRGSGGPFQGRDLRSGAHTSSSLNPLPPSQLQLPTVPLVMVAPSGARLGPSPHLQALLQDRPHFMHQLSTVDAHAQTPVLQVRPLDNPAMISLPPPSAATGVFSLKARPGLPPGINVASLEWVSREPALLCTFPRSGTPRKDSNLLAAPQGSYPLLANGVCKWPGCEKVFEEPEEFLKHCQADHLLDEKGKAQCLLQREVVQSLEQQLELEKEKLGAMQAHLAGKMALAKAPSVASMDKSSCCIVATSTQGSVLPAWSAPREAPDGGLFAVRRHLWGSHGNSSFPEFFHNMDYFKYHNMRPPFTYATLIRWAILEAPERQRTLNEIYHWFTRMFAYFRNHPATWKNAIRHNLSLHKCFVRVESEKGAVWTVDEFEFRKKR
As to the kind of experiment: cell-based or functional assay.
Turning to RDFQSFRKMWAFFAM [peptide of SEQ ID NO: 30], the “Treg inhibition-% inhibition (100 µM)” value was found to be 170%.
On to RDFQAFRKMWPFFAM [peptide of SEQ ID NO: 19], for which the “Treg inhibition-% inhibition (100 µM)” value came out at 160%.
Same read-out and setting: the result for RDFQSFRKMWPFFAM [p60 (peptide of SEQ ID NO: 1)] reads 116%.
Consider RAFQSFRKMWPFFAM [peptide of SEQ ID NO: 5], for which the “Treg inhibition-% inhibition (100 µM)” value came to 347%.

For a further assay, the target named is human FOXP3 tagged with 6 histidines at the C terminus (human) (UniProt Q9BZS1). As to the kind of experiment: AlphaScreen competition, His-tagged FOXP3 (400 nM) / GST-tagged FOXP3 (40 nM, competitor); peptide at 100 µM. For orientation: Alpha assays give light when donor and acceptor beads are brought close together.
Sequence of human FOXP3 tagged with 6 histidines at the C terminus (human) (Q9BZS1 other isoform, or with tags, fused parts or gaps): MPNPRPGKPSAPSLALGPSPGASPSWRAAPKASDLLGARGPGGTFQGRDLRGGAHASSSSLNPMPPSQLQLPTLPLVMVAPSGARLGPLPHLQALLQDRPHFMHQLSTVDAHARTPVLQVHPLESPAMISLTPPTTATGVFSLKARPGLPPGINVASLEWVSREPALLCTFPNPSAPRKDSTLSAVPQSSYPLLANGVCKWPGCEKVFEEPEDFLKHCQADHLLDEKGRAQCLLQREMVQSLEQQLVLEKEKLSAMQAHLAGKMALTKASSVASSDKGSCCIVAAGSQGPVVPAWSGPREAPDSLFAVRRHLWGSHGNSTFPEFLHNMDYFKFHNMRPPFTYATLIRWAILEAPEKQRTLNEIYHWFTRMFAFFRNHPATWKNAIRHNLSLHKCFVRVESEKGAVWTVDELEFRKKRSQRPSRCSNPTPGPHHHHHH
Molecule RDFQSFRKMWAFFAM [peptide of SEQ ID NO: 30] came in with a Dimerization inhibition % inhibition of 81.3%.
Same read-out and setting: the result for RDFQAFRKMWPFFAM [peptide of SEQ ID NO: 19] reads 89%.
Same read-out and setting: the value for RDFQSFRKMWPFFAM [p60 (peptide of SEQ ID NO: 1)] was 59.7%.
RAFQSFRKMWPFFAM [peptide of SEQ ID NO: 5] returned a Dimerization inhibition % inhibition of 74.3%.

The target is the same in another assay. The experiment in a line: AlphaScreen competition, His-tagged FOXP3 (400 nM) / GST-tagged FOXP3 (40 nM, competitor); peptide at 20 µM.
The molecule Ac-GRDFQSFRKMWPFFAM-NH2 [peptide of SEQ ID NO: 2] yielded a Dimerization inhibition % inhibition of 80%.
Same read-out and setting: the value for B1 was 90%; that for B2 was 90%.

In another assay the target is GST-FOXP3 (GST fused to the isoform A from human FOXP3 gene) (human) [GST: P08515]. As to the kind of experiment: AlphaScreen competition, GST-FOXP3 (100 nM) / His-Runx1 (46 nM, competitor); peptide at 2.5 µM.
Sequence of GST-FOXP3 (GST fused to the isoform A from human FOXP3 gene) (human) [GST: P08515] (P08515 1-218, tags or fused parts left off): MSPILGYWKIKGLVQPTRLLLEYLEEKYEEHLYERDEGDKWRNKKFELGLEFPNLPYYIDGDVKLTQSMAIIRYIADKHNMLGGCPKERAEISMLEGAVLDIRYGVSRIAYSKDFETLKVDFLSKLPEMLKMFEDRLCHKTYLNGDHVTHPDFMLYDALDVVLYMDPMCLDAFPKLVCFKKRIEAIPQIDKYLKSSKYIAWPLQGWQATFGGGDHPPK
The molecule B3 yielded a Foxp3-Runx1 Inhibition % inhibition of 60%.
Same read-out and setting: the value for [dR]AFQSFRKMWPFFA[dM] [peptide of SEQ ID NO: 48] was 70%; that for RAFQSFRKMWPFFA[dM] [peptide of SEQ ID NO: 47] was 75%.
On the same count and under the same terms, the value for B1 was 80%; that for B2 was 95%.

Another assay concerns the target human FOXP3 tagged with 6 histidines at the C terminus (human) (UniProt Q9BZS1). The experiment in a line: SPR (ProteOn XPR36), FOXP3-6His immobilized on GLM chip, peptide 1-20 µM injected; ratio to p60 (SEQ ID NO: 1).
In the case of B3, the Ratio binding Peptide/p60 (fold change) was found to be 21.4 fold change.
The same measure, in the same setting: the value for RDFQSFRKMWAFFAM [peptide of SEQ ID NO: 30] was 1.1 fold change; that for RDFQAFRKMWPFFAM [peptide of SEQ ID NO: 19] was 1.1 fold change; that for Ac-GRAFQAFRKMWAFFAM-NH2 [peptide of SEQ ID NO: 45] was 8 fold change.
Still for that read-out and setting: the value for B4 was 4.2 fold change; that for Ac-GRDFQSFRKMWPFFAM-NH2 [peptide of SEQ ID NO: 2] was 2.4 fold change; that for Ac-GRAFQAFRKMWPFFAM-NH2 [peptide of SEQ ID NO: 41] was 3.7 fold change.
Still for that read-out and setting: the result for Ac-GRAFQSFRKMWPFFAM-NH2 [peptide of SEQ ID NO: 13] reads 3.2 fold change; that for RDFQSFRKMWPFFAM [p60 (peptide of SEQ ID NO: 1)], 1 fold change.
As to [dR]AFQSFRKMWPFFA[dM] [peptide of SEQ ID NO: 48], the Ratio binding Peptide/p60 (fold change) turned out to be 2.5 fold change.
The same measure, in the same setting: the value for RAFQSFRKMWPFFA[dM] [peptide of SEQ ID NO: 47] was 1.7 fold change; that for RAFQSFRKMWPFFAM [peptide of SEQ ID NO: 5] was 4.1 fold change.
Consider B1, for which the Ratio binding Peptide/p60 (fold change) was 3.6 fold change.
Still for that read-out and setting: the value for RDAQSFRKMWPFFAM [peptide of SEQ ID NO: 15] was 1.1 fold change; that for B2 was 2.7 fold change.

A further assay has as its target T1, Foxp3 in murine CD25+ Treg cells. The experiment in a line: cell-based or functional assay. This is another data set of the same source.
As to B3, the “IC50 (µM) of inhibition of Treg activity, in vitro Treg suppression assay (murine Tconv + Treg, anti-CD3, [3H]-thymidine)” value (from here on “IC50 (µM) of inhibition of Treg activity”) came to 0.8 µM.
For the molecule Ac-GRAFQAFRKMWAFFAM-NH2 [peptide of SEQ ID NO: 45], the “IC50 (µM) of inhibition of Treg activity” value is 3 µM.
Still for that read-out and setting: the value for B4 was 13.4 µM.
In the case of Ac-GRAFQAFRKMWPFFAM-NH2 [peptide of SEQ ID NO: 41], the “IC50 (µM) of inhibition of Treg activity” value stood at 1.9 µM.
As for Ac-GRAFQSFRKMWPFFAM-NH2 [peptide of SEQ ID NO: 13], the “IC50 (µM) of inhibition of Treg activity” value amounted to 12.5 µM.
Same read-out and setting: the result for RDFQSFRKMWPFFAM [p60 (peptide of SEQ ID NO: 1)] reads 38.3 µM; that for [dR]AFQSFRKMWPFFA[dM] [peptide of SEQ ID NO: 48], 20 µM; that for RAFQSFRKMWPFFA[dM] [peptide of SEQ ID NO: 47], 35 µM.
On the same count and under the same terms, the result for B1 reads 12.5 µM.
Still for that read-out and setting: the value for B2 was 12.5 µM.

A further assay addresses GST-FOXP3 (GST fused to the isoform A from human FOXP3 gene) (human) [GST: P08515]. As to the kind of experiment: AlphaScreen competition, GST-FOXP3 (100 nM) / His-Runx1 (46 nM, competitor); peptide at 100 µM.
In the case of RDFQSFRKMWAFFAM [peptide of SEQ ID NO: 30], the Foxp3-Runx1 Inhibition % inhibition was 73.9%.
On the same count and under the same terms, the value for RDFQAFRKMWPFFAM [peptide of SEQ ID NO: 19] was 74.7%; that for RDFQSFRKMWPFFAM [p60 (peptide of SEQ ID NO: 1)] was 54.5%.
Turning to RAFQSFRKMWPFFAM [peptide of SEQ ID NO: 5], the Foxp3-Runx1 Inhibition % inhibition was found to be 76%.
In turn, RDAQSFRKMWPFFAM [peptide of SEQ ID NO: 15] displayed a Foxp3-Runx1 Inhibition % inhibition of 55.6%.
